Assay results reported in the MegaScale stability set (Tsuboyama et al. 2023).

B1: EEHEE_rd3_1049 (parent)
chain: TTVKLGDIKVTFDNPEKAKKYAQKLAKIYQLTVHVHGDTIHVK

Variants of: B1
Assay: folding stability dG (cDNA display proteolysis); higher = more stable
Details: PBS, room temperature

Folding stability dG [kJ/mol], by site and new letter:
L25: A 1.15; C 8.81; D -2.54; E -3.23; F 3.63; G -1.07; H 0.0879; I 7.65; K 1.98; M 6.49; N -1.31; P -2.32; Q 1.23; R 1.36; S -1.38; T 0.887; V 5.29; W 6.02; Y 3.48
A26: C 11.6; D 0.326; E 2.7; F 4.67; G 3.76; H 2.29; I 4.55; K 4.25; L 4.84; M 5.13; N 1.79; P -1.18; Q 3.75; R 5.74; S 5.13; T 2.77; V 3.61; W 5.02; Y 4.22
K27: A 8.51; C 12.3; D 7.5; E 8.54; F 8.8; G 5.73; H 7.13; I 7.5; L 8.79; M 8.43; N 6.92; P -1.36; Q 8.13; R 9.49; S 7.65; T 7.31; V 6.74; W 8.56; Y 8.92
I28: A 6.89; C 12.2; D 4.53; E 6.16; F 8.43; G 1.46; H 6.85; K 10.4; L 9.74; M 9.86; N 4.21; P -3.48; Q 7.87; R 10; S 4.41; T 6.18; V 6.53; W 8.97; Y 8.97
Y29: A 2.29; D -0.272; E 0.364; F 8.84; G 2.43; H 5.5; I 3; K 2.8; L 7.82; M 5.29; N 2.44; P 2.16; Q 1.56; R 3.37; S 2.02; T 2.75; V 2.33; W 6.98
Q30: A 7.91; D 8.71; E 6.8; F 7.82; G 13.5; H 10.1; I 5.35; K 9.19; L 6.21; M 8.05; N 10.8; P 2.57; R 8.27; S 8.61; T 5.61; V 5.2; W 7.14; Y 6.88
L31: A 6.53; D -0.402; E 0.00837; F 6.24; G 6.92; H 3.39; I 4.41; K 2.26; M 9.11; N 1.13; P -2.17; Q 1.71; R 2.56; S 3.74; T 4.44; V 4.53; W 5.26; Y 5.46
T32: A 7.47; C 11.6; D 5.56; E 7.61; F 7.59; G 5.52; H 6.68; I 8.39; K 6.82; L 6.68; M 7.31; N 5.96; P 2.56; Q 7.83; R 5.85; S 8.11; V 9.23; W 6.21; Y 7.08
V33: A 3.64; C 8.87; D -0.598; E 0.615; F 6.69; G 0.607; H 1.28; I 9.9; K -0.469; L 8.77; M 7.43; N -1.63; P 1.01; Q 1.4; R -0.715; S 1.94; T 4.66; W 7.76; Y 6.45
H34: A 7.96; C 13.1; D 6.63; E 10.3; F 10; G 3.57; I 10.2; K 7.15; L 8.64; M 8.7; N 5.6; P -0.351; Q 8.82; R 6.87; S 8.48; T 8.85; V 10.8; W 8.99; Y 9.99
V35: A 5.6; C 8.87; D 6.56; E 6.52; F 8.7; G 2.08; H 6.57; I 9.45; K 5.2; L 7.11; N 4.57; P 4; Q 7.43; R 5.33; S 4.88; T 6.27; W 8.34; Y 8.94
H36: A 8.86; C 13.8; D 10.8; E 11.1; F 9.06; G 4.84; I 11.4; K 8.22; L 9.79; M 10.3; N 8.54; P 0.163; Q 9.77; R 8.18; S 9.17; T 8.67; V 10.9; W 8.33; Y 9.17
G37: A 5.34; D 5.1; E 5.45; F 5.79; H 4.39; I 4.35; K 5.2; L 5.46; M 5.09; N 5.46; P 2.92; Q 5.31; R 4.71; S 4.18; T 3.54; V 4.41; W 5.24; Y 5.2
D38: A 8.12; C 8.89; E 6.17; F 7.13; G 6.68; H 8.15; I 6.72; K 7.72; L 7.65; M 8.26; N 10.4; P 5.95; Q 7.74; R 7.77; S 9.05; T 8.36; V 6.57; W 7.38; Y 6.13
T39: A 4.74; C 9.47; D 3.86; E 7.63; F 7.39; G 3.04; H 6.61; I 9.5; K 3.95; L 7.56; M 8.2; N 4.43; P 1.91; Q 5.67; R 3.49; S 5.17; V 9.32; W 6.47; Y 7.16
I40: A 1.18; C 3.57; D 1.2; E 0.937; F 6.71; G 2.24; H 2.41; K 1.85; L 6.94; M 4.86; N 1; P 1.94; Q 1.83; R 0.895; S 2.26; T 1.88; V 5.45; W 5.35; Y 6.93
H41: A 5.26; C 10.1; D 6.23; E 10.2; F 9.91; G 1.99; I 10.8; K 4.6; L 9.09; M 7.79; N 5.52; P 1.18; Q 6.48; R 5.24; S 6.92; T 9.32; V 10.2; W 9.68; Y 10.9
V42: A 2.52; C 7.48; D 0.987; E 1.27; F 8.16; G 1.43; H 1.21; I 8.46; K 1.62; L 11.8; M 7.09; N 2.04; P 1.08; Q 1.37; R 1.19; S 2
